According to patent US20230365658A1:
“And” between values parts separate entries of the source, which are not always exact repeats. Equal entries are not always repeated.

What was measured:
[1] = target: COV2-RBD (rpk9) B.1.1.529 R346K (BA.1.1) (SARS-CoV-2)
[2] = target: SARS-CoV-2 spike (S) glycoprotein, D614G (SARS-CoV-2) (UniProt P0DTC2); test: cell-based or functional assay

| Substance | EC50 [1] | normalized pseudoneutralization IC50 [2] [µg/mL] |
| --- | --- | --- |
| COV2-2130 (antibody) | 4.13 µg/mL and 3.54 µg/mL | – |
| rS2K146 (antibody) | – | 0.00656 |
